Assay results published in the supplement of paper PMC10567573.
± gives the standard deviation.

Assay: protein stability index of a GFP-peptide fusion (GPS, HEK-293T) (PSI 1-6); higher = more stable
[1] = treatment: DMSO, c terminus: a fixed tail appended
[2] = treatment: MLN4924 1 uM, 8 h, c terminus: a fixed tail appended
[3] = treatment: DMSO, c terminus: native
[4] = treatment: MLN4924 1 uM, 8 h, c terminus: native
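Note: 24-mer peptide tiles fused after GFP, lentivirally expressed, FACS-sorted into six equal bins by GFP/DsRed ratio, decoded by Illumina sequencing, PSI is the read-weighted mean bin number.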

| Sequence | protein stability index [1] | protein stability index [2] | protein stability index [3] | protein stability index [4] |
| --- | --- | --- | --- | --- |
| SSMFSGSWKESSMNIIELEIPDQN [GMCL1] | 3.53 ± 0.29 | 3.67 ± 0.5 |  |  |
| SSRYDDYSSSRDGYGGSRDSYSSS [RBMX] | 4.37 ± 0.25 | 4.52 ± 0.19 |  |  |
| SSSSILRWLPEKRANPCLSSSNEH [ELOA2] | 3.4 ± 0.19 | 3.54 ± 0.25 |  |  |
| SSSSSSSSSSGPGHGEPDVLKDEL [TMEM40] | 5.44 ± 0.15 | 5.42 ± 0.21 |  |  |
| SSVSPAVSKASSRRSSFSMEEES [TFE3] |  |  | 5.44 ± 0.14 | 5.28 ± 0.17 |
| STEKVVQETVLVEERRVVHASGDA [EPB41L3] | 5.33 ± 0.23 | 4.93 ± 0.16 |  |  |
| STFYPPYHSPELTTPPGHGTLDNS [NEUROD6] | 4.27 ± 0.091 | 4.21 ± 0.22 |  |  |
| STTDLRGTQFDYERGKGESTEDR [ZSWIM9] |  |  | 5.28 ± 0.34 | 5.43 ± 0.11 |
| SVFKKGRRRVPVRNLGKVVHYAKV [PLEKHN1] | 2.36 ± 0.17 | 2.37 ± 0.84 |  |  |
| SVIEEDLEEFQLALKHYVESASSQ [NECAB1] | 3.78 ± 0.58 | 3.84 ± 0.077 |  |  |
| SVIKDHHTRSITSCCFDPDSQRVA [WDR88] | 3.35 ± 0.2 | 3.41 ± 0.38 |  |  |
| SVLLSWEIPENYNSAMPFKILYDD [PTPRD] | 1.88 ± 0.26 | 2.29 ± 0.22 |  |  |
| SVMYRKWKESKGKDREYTDIIRKQ [CDC34] | 3.52 ± 0.18 | 3.76 ± 0.25 |  |  |
| SWMCTRSGNMLGRHFFTSWASCLQ [WDFY1] | 1.86 ± 0.32 | 2.33 ± 0.22 |  |  |
| TCSADHLIILWKNGERESGLRSLR [WDR41] | 2.09 ± 0.25 | 2.28 ± 0.17 |  |  |
| TCSICRRNFSRRSSLLRHQKLHL [ZNF75A] |  |  | 3.65 ± 0.23 | 4.06 ± 0.43 |
| TDNSIKPQELLEWELVVLGKLKWN [CCND2] | 2.65 ± 0.25 | 2.81 ± 0.33 |  |  |
| TEELNKEVASNTEMIQTSKTEITD [KRT15] | 5.49 ± 0.29 | 5.52 ± 0.19 |  |  |
| TEISFILGQEFDEVTADDRKVKST [FABP4] | 4.24 ± 0.43 | 4.43 ± 0.17 |  |  |
| TERMDKVGDALEEVLSKALSQRTI [GADD45A] | 3.83 ± 0.26 | 3.83 ± 0.13 |  |  |
| TESYIARPDGDCASSLNGGNIKGI [ZC2HC1A] | 4.09 ± 0.047 | 4.24 ± 0.21 |  |  |
| TEWACILRRKTPRHKQPTLLMVRA [C6orf223] | 2.19 ± 0.57 | 2.17 ± 0.097 |  |  |
| TFALYKNGSSEKREVRQFQFTAWP [PTPRD] | 2.29 ± 0.22 | 2.46 ± 0.18 |  |  |

| Sequence | protein stability index [1] | protein stability index [2] | protein stability index [3] | protein stability index [4] |
| --- | --- | --- | --- | --- |
| TFFEVSPLCNFNVIESFTELSRIV [RAB40C] | 2.46 ± 0.63 | 2.15 ± 0.43 |  |  |
| TFQSSVLRVGIPENAPIGTLLLRL [PCDHGC5] | 2.23 ± 0.3 | 2.16 ± 0.12 |  |  |
| TGEDVKVILKNSQGEEVAQRSTVF [LMNB1] | 4.7 ± 0.15 | 4.64 ± 0.09 |  |  |
| THSREKSSQESGEEAGSQENHPQE [CHGB] | 5.54 ± 0.39 | 5.6 ± 0.18 |  |  |
| THVTLLITVTQSHLVIQNLFEGMI [CDS1] | 3.09 ± 0.21 | 3.22 ± 0.16 |  |  |
| TIPASLDLSPLLGFWQLPPPATQN [PLAGL1] | 2.74 ± 0.15 | 2.96 ± 0.32 |  |  |
| TKHIHITQATETTTTRHKRTANPS [CLINT1] | 4.6 ± 0.19 | 4.77 ± 0.13 |  |  |
| TKKKGVKRPARLHTKPSQAPAVEV [NOP53] | 4.36 ± 0.2 | 4.411 ± 0.021 |  |  |
| TLDKRWRVRKEAMMGLAQIYKKYA [PDS5B] | 2.23 ± 0.21 | 2 ± 0.14 |  |  |
| TLEQHLNTLEGKKPGNNEGSGAPS [SNAP91] | 4.81 ± 0.18 | 5.14 ± 0.08 |  |  |
| TLHPDASANFHSLDDIYYFGGQNA [FUT8] | 3.21 ± 0.12 | 3.27 ± 0.16 |  |  |
| TLIREKSFGACLREETPRMPSWAS [ELOA2] | 2.14 ± 0.13 | 2.67 ± 0.71 |  |  |
| TLLLQGHHDKVQSLCYLQLTRQLV [WDFY1] | 2.8 ± 0.43 | 2.76 ± 0.38 |  |  |
| TMARALGRFKLSIPHTHLLATLDP [WDR88] | 2.19 ± 0.27 | 2.21 ± 0.18 |  |  |
| TNDVETARCTAGTLHNLSHHREGL [CTNNB1] | 3.89 ± 0.19 | 4.07 ± 0.18 |  |  |
| TPAGLPPSRAKPPTEGAGSPAKAS [FBF1] | 5.38 ± 0.32 | 5.4 ± 0.1 |  |  |
| TPDIKSHYAFRIFDFDDDGTLNRE [CIB1] | 3.55 ± 0.15 | 3.44 ± 0.21 |  |  |
| TPEELTILGETQEEEDEILPRKDY [CLCN6] | 5.51 ± 0.13 | 5.54 ± 0.21 |  |  |
| TPEKKAEEERDEEEDKRRKGEEVT [EPB41L3] | 5.74 ± 0.29 | 5.75 ± 0.27 |  |  |
| TQQELRKIREKEEWIKLDYHRRHN [IQUB] | 3.88 ± 0.29 | 3.82 ± 0.52 |  |  |
| TQRLWDFTQSGPIVSRATGRCLEV [GALNT9] | 2.81 ± 0.43 | 3.02 ± 0.22 |  |  |
| TQYFAELLMTSGVVLCEGVKWLSF [CNOT7] | 3.25 ± 0.2 | 3.56 ± 0.19 |  |  |
| TQYFVQENYLEYRQVPGSDPACYE [MAGEA6] | 3.34 ± 0.29 | 3.59 ± 0.38 |  |  |

| Sequence | protein stability index [1] | protein stability index [2] | protein stability index [3] | protein stability index [4] |
| --- | --- | --- | --- | --- |
| TRGKRESESRGSSGRVKRERDRER [USP39] | 5.04 ± 0.26 | 5.3 ± 0.18 |  |  |
| TRHYRPPEVILELGWAQPCDVWSI [CLK3] | 2.69 ± 0.65 | 2.47 ± 0.52 |  |  |
| TRPTQHELRLYKQQVKKLEKALKK [CEP70] | 3.23 ± 0.25 | 3.07 ± 0.29 |  |  |
| TRSHLWEAAQVVPDGLGLDEAREE [TRIB3] | 5.13 ± 0.24 | 5.13 ± 0.28 |  |  |
| TRTGPSAWETKKILAVSFAPLIQP [PCMTD2] | 2.14 ± 0.29 | 2.31 ± 0.31 |  |  |
| TSAKVNWMPPPSRADSFKVSYQLA [TNXB] | 2.5 ± 0.32 | 2.69 ± 0.26 |  |  |
| TSIGDGPLSSDIQVITQTGVPGQP [PTPRD] | 4.6 ± 0.22 | 4.76 ± 0.19 |  |  |
| TSPTRQHHVEREKDHSSSRPSSPR [BTBD10] | 5.38 ± 0.12 | 5.45 ± 0.092 |  |  |
| TTKFTGSHKERFDPSGKGKGKAGR [TPPP] | 4.83 ± 0.2 | 4.93 ± 0.32 |  |  |
| TTPLSPTRLSRLQEKEELRELNDR [LMNB1] | 5.18 ± 0.39 | 5.1 ± 0.18 |  |  |
| TVASEAKIQLSDSEAKSHSSADDA [FAN1] | 5.46 ± 0.28 | 5.38 ± 0.27 |  |  |
| TVFDANDNAPVFTLPEYRVSVPEN [PCDHGA10] | 3.53 ± 0.11 | 3.86 ± 0.16 |  |  |
| TVKHIDAALSEENTGKTYFFVANK [MMP1] | 3.28 ± 0.32 | 3.38 ± 0.18 |  |  |
| TVLAVLEDSSRDIREALHELLCCT [INTS4] | 2.43 ± 0.54 | 2.29 ± 0.26 |  |  |
| VACSETAPDLVLNAEMVQQTTYLE [LOXL2] | 4.41 ± 0.53 | 4.5 ± 0.25 |  |  |
| VAFVDRADIKQYIGPPSAAAIFKI [TRIP13] | 2.82 ± 0.66 | 2.36 ± 0.47 |  |  |
| VASRNLFPKDTLMNLHVYISEHEH [CLPTM1] | 2.35 ± 0.34 | 2.37 ± 0.51 |  |  |
| VATGSQQSLAQPLPGNTTEATPRS | 5.42 ± 0.44 | 5.28 ± 0.43 |  |  |
| VCCNPYHFSRLCGPESPPPPYSRL [SMAD6] | 2.15 ± 0.36 | 2.15 ± 0.18 |  |  |
| VCDSCYDSIKDEDRTSLATFHEGK [WDFY1] | 4.62 ± 0.28 | 4.83 ± 0.26 |  |  |
| VDQKLELNIVPRTKVVYLASETFN [PI4K2A] | 2.38 ± 0.23 | 2.51 ± 0.25 |  |  |
| VEEPSSKDVMEKREDSKEAEKSGE [CHGA] | 5.5 ± 0.36 | 5.58 ± 0.32 |  |  |
| VEKSSPATSLFVELDEEEVKAATT [BCL2L13] | 5.53 ± 0.22 | 5.46 ± 0.2 |  |  |

| Sequence | protein stability index [1] | protein stability index [2] | protein stability index [3] | protein stability index [4] |
| --- | --- | --- | --- | --- |
| VELLLSHADCDRRSRIEALELLGA [FEM1B] | 2.7 ± 0.19 | 2.78 ± 0.21 |  |  |
| VENNRRDVEAWFNTQTEELNQQVV [KRT36] | 4.67 ± 0.27 | 4.65 ± 0.14 |  |  |
| VFCPLDPPPPYEAVVSQMDQEQGS [FAM189A2] | 4.65 ± 0.13 | 4.76 ± 0.2 |  |  |
| VGKVEELIESEAPPKASEQETAKE [C18orf25] | 5.53 ± 0.28 | 5.6 ± 0.27 |  |  |
| VGNNHESWGWDLGRNRLYHDGKNQ [SPSB1] | 3.83 ± 0.33 | 3.87 ± 0.42 |  |  |
| VGPLAQDPQSPMAGLRWLDSWDF [POMT2] |  |  | 3.34 ± 0.38 | 3.36 ± 0.3 |
| VGSDDLERIEARLATLEGDDPSLR [PSD2] | 5.32 ± 0.17 | 5.42 ± 0.17 |  |  |
| VGSLSWLRKQLQPTHCKYEGPRKA | 2.87 ± 0.24 | 2.9 ± 0.21 |  |  |
| VHPTKHEVHFLHEESILERVQQHI [MLH1] | 3.18 ± 0.16 | 3.28 ± 0.15 |  |  |
| VHVISLHIWELSSIKNSLKVAAIS [PTGFR] | 2.86 ± 0.46 | 3.07 ± 0.32 |  |  |
| VILIFHCEFSSERGPRMCRFIRER [CDC25B] | 2.78 ± 1.1 | 2.64 ± 0.83 |  |  |
| VKAKEQIENYKKQTRNGLGKDHEI [FUT8] | 4.59 ± 0.17 | 4.76 ± 0.16 |  |  |
| VKEISDKISKEEMVRRLKMVVKTF [PDS5B] |  | 2.24 ± 0.91 |  |  |
| VKVLAFTSIGDGPLSSDIQVITQT [PTPRD] | 2.62 ± 0.48 | 2.31 ± 0.37 |  |  |
| VLKKQDAFYKEQLARLEERSSEFY [CHCHD3] | 3.45 ± 0.34 | 3.48 ± 0.12 |  |  |
| VLRCQLSAEEVRFPVSVTQQSPAA [C2CD2L] | 3.3 ± 0.34 | 3.45 ± 0.23 |  |  |
| VLVKDNGLGCKDLDLIFHVALPTE [TENT5C] | 2.58 ± 0.57 | 2.82 ± 0.73 |  |  |
| VNLLHIESRKSKRRNSEFEIFVDC [TPH1] | 2.26 ± 0.52 | 2.4 ± 0.35 |  |  |
| VPGLLLSYLMLVTVMMWPLAVYHR [RETREG3] | 3.33 ± 0.44 | 3 ± 0.31 |  |  |
| VPKNYVVVLSDGPALHPAHAPQIS [NCK2] | 2.42 ± 0.17 | 2.61 ± 0.31 |  |  |
